# According to patent publication US20130011378A1, “Stable formulations of a hyaluronan-degrading enzyme” (priority 2011, published 2013):
# Assays:
# [1] = RP-HPLC: insulin apparent solubility / percent recovery; conditions: 7 days at 2-8° C.
# Procedure, shortened: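 Vial samples withdrawn at each time point, centrifuged, held at 4 °C, run in duplicate by RP-HPLC. Apparent solubility = combined insulin main and desamido peak areas as percent versus standards/initial formulation; purity = main insulin peak as percent of all insulin species.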
# [2] = Appearance (visual analysis, illuminator method); type: physicochemical
# Description: Appearance of the insulin/rHuPH20 formulations was determined by qualitative visual analysis of the insulin/rHuPH20 solution in a type I glass vial. The evaluation of the coloration and clarity of the solution was determined by comparison to that of USP (or equivalent) sterile water for irrigation (SWFI). The aqueous solution was determined to be clear if its clarity was the same as that of the SWFI. The aqueous solution was determined to be colorless if it had the appearance of the SWFI. Vials were tested at room temperature and care was taken not to cause unnecessary turbulence and/or air bubbles in the solutions while swirling and/or inverting. If necessary, vials were wiped with non-shedding or lint-free wipes and 70% ethanol prior to testing. The procedure was as follows: A directional light source with a 150 W or greater lamp was turned on. The samples were prepared in a hood. Samples to be tested were gently inverted to ensure homogeneity prior to transferring >0.5 mL using aseptic technique to a Type 1 glass vial for testing. A SWFI sample was prepared in the same way. […] Color, clarity and the presence and extent of any visible particles and/or foreign matter were recorded. […]
# In this method, the degree of clarity and coloration of liquids were evaluated to ensure (visually) product quality against the applicable appearance specifications. […]
# [3] = cited from earlier work
substance,measurement,setting,value
"regular insulin: mature human insulin, SEQ ID NOS: 103 and 104","Solubility of regular Insulin, % remaining of the original concentration","[1]; 0.2% methylparaben + […] m-cresol, pH 6.6, NaCl 50 mM",15.3%
same,"Solubility of regular Insulin, % remaining of the original concentration","[1]; 0.2% methylparaben + […] m-cresol, pH 6.6, NaCl 80 mM",9.0%
same,"Solubility of regular Insulin, % remaining of the original concentration","[1]; 0.2% methylparaben + […] m-cresol, pH 6.6, NaCl 140 mM",5.8%
same,"Solubility of regular Insulin, % remaining of the original concentration","[1]; 0.2% methylparaben + […] m-cresol, pH 6.8, NaCl 50 mM",34.1%
same,"Solubility of regular Insulin, % remaining of the original concentration","[1]; 0.2% methylparaben + […] m-cresol, pH 6.8, NaCl 110 mM",11.4%
same,"Solubility of regular Insulin, % remaining of the original concentration","[1]; 0.2% methylparaben + […] m-cresol, pH 7.0, NaCl 50 mM",86.9%
same,"Solubility of regular Insulin, % remaining of the original concentration","[1]; 0.2% methylparaben + […] m-cresol, pH 7.0, NaCl 80 mM",46.6%
same,"Solubility of regular Insulin, % remaining of the original concentration","[1]; 0.2% methylparaben + […] m-cresol, pH 7.0, NaCl 140 mM",15.9%
same,"Solubility of regular Insulin, % remaining of the original concentration","[1]; 0.2% methylparaben + […] m-cresol, pH 7.2, NaCl 80 mM",90.6%
same,"Solubility of regular Insulin, % remaining of the original concentration","[1]; 0.2% methylparaben + […] m-cresol, pH 7.2, NaCl 110 mM",47.1%
same,"Solubility of regular Insulin, % remaining of the original concentration","[1]; 0.2% methylparaben + […] m-cresol, pH 7.2, NaCl 140 mM",32.9%
same,"Solubility of regular Insulin, % remaining of the original concentration","[1]; 0.2% methylparaben + […] m-cresol, pH 7.4, NaCl 50 mM",98.1%
same,"Solubility of regular Insulin, % remaining of the original concentration","[1]; 0.2% methylparaben + […] m-cresol, pH 7.4, NaCl 80 mM",97.7%
same,"Solubility of regular Insulin, % remaining of the original concentration","[1]; 0.2% methylparaben + […] m-cresol, pH 7.4, NaCl 110 mM",94.6%
same,"Solubility of regular Insulin, % remaining of the original concentration","[1]; 0.2% methylparaben + […] m-cresol, pH 7.4, NaCl 140 mM",59.1%
same,"Solubility of regular Insulin, % remaining of the original concentration","[1]; 0.2% methylparaben + […] m-cresol, pH 7.6, NaCl 50 mM",98.1%
same,"Solubility of regular Insulin, % remaining of the original concentration","[1]; 0.2% methylparaben + […] m-cresol, pH 7.6, NaCl 80 mM",97.9%
same,"Solubility of regular Insulin, % remaining of the original concentration","[1]; 0.2% methylparaben + […] m-cresol, pH 7.6, NaCl 140 mM",95.4%
same,"Solubility of regular Insulin, % remaining of the original concentration","[1]; 0.2% phenol + […] m-cresol, pH 6.6, NaCl 50 mM",26.8%
same,"Solubility of regular Insulin, % remaining of the original concentration","[1]; 0.2% phenol + […] m-cresol, pH 6.6, NaCl 80 mM",8.7%
same,"Solubility of regular Insulin, % remaining of the original concentration","[1]; 0.2% phenol + […] m-cresol, pH 6.6, NaCl 110 mM",6.5%
same,"Solubility of regular Insulin, % remaining of the original concentration","[1]; 0.2% phenol + […] m-cresol, pH 6.6, NaCl 140 mM",5.8%
same,"Solubility of regular Insulin, % remaining of the original concentration","[1]; 0.2% phenol + […] m-cresol, pH 6.8, NaCl 50 mM",38.4%
same,"Solubility of regular Insulin, % remaining of the original concentration","[1]; 0.2% phenol + […] m-cresol, pH 6.8, NaCl 80 mM",17.1%
same,"Solubility of regular Insulin, % remaining of the original concentration","[1]; 0.2% phenol + […] m-cresol, pH 6.8, NaCl 140 mM",6.5%
same,"Solubility of regular Insulin, % remaining of the original concentration","[1]; 0.2% phenol + […] m-cresol, pH 7.0, NaCl 50 mM",100.3%
same,"Solubility of regular Insulin, % remaining of the original concentration","[1]; 0.2% phenol + […] m-cresol, pH 7.0, NaCl 80 mM",35.7%
same,"Solubility of regular Insulin, % remaining of the original concentration","[1]; 0.2% phenol + […] m-cresol, pH 7.0, NaCl 110 mM",17.7%
same,"Solubility of regular Insulin, % remaining of the original concentration","[1]; 0.2% phenol + […] m-cresol, pH 7.0, NaCl 140 mM",11.6%
same,"Solubility of regular Insulin, % remaining of the original concentration","[1]; 0.2% phenol + […] m-cresol, pH 7.2, NaCl 80 mM",92.2%
same,"Solubility of regular Insulin, % remaining of the original concentration","[1]; 0.2% phenol + […] m-cresol, pH 7.2, NaCl 110 mM",37.4%
same,"Solubility of regular Insulin, % remaining of the original concentration","[1]; 0.2% phenol + […] m-cresol, pH 7.2, NaCl 140 mM",18.9%
same,"Solubility of regular Insulin, % remaining of the original concentration","[1]; 0.2% phenol + […] m-cresol, pH 7.4, NaCl 80 mM",99.2%
same,"Solubility of regular Insulin, % remaining of the original concentration","[1]; 0.2% phenol + […] m-cresol, pH 7.4, NaCl 110 mM",87.8%
same,"Solubility of regular Insulin, % remaining of the original concentration","[1]; 0.2% phenol + […] m-cresol, pH 7.4, NaCl 140 mM",40.6%
same,"Solubility of regular Insulin, % remaining of the original concentration","[1]; 0.2% phenol + […] m-cresol, pH 7.6, NaCl 80 mM",99.2%
same,"Solubility of regular Insulin, % remaining of the original concentration","[1]; 0.2% phenol + […] m-cresol, pH 7.6, NaCl 110 mM",98.5%
same,"Solubility of regular Insulin, % remaining of the original concentration","[1]; 0.2% phenol + […] m-cresol, pH 7.6, NaCl 140 mM",82.2%
same,"Solubility of regular Insulin, % remaining of the original concentration","[1]; […] phenol + […] m-cresol, pH 6.6, NaCl 50 mM",31.2%
same,"Solubility of regular Insulin, % remaining of the original concentration","[1]; […] phenol + […] m-cresol, pH 6.6, NaCl 80 mM",18.6%
same,"Solubility of regular Insulin, % remaining of the original concentration","[1]; […] phenol + […] m-cresol, pH 6.6, NaCl 140 mM",12.9%
same,"Solubility of regular Insulin, % remaining of the original concentration","[1]; […] phenol + […] m-cresol, pH 6.8, NaCl 50 mM",66.6%
same,"Solubility of regular Insulin, % remaining of the original concentration","[1]; […] phenol + […] m-cresol, pH 6.8, NaCl 80 mM",24.9%
same,"Solubility of regular Insulin, % remaining of the original concentration","[1]; […] phenol + […] m-cresol, pH 7.0, NaCl 50 mM",96.7%
same,"Solubility of regular Insulin, % remaining of the original concentration","[1]; […] phenol + […] m-cresol, pH 7.0, NaCl 80 mM",80.8%
same,"Solubility of regular Insulin, % remaining of the original concentration","[1]; […] phenol + […] m-cresol, pH 7.0, NaCl 110 mM",32.9%
same,"Solubility of regular Insulin, % remaining of the original concentration","[1]; […] phenol + […] m-cresol, pH 7.0, NaCl 140 mM",17.1%
same,"Solubility of regular Insulin, % remaining of the original concentration","[1]; […] phenol + […] m-cresol, pH 7.2, NaCl 80 mM",96.4%
same,"Solubility of regular Insulin, % remaining of the original concentration","[1]; […] phenol + […] m-cresol, pH 7.2, NaCl 110 mM",58.7%
same,"Solubility of regular Insulin, % remaining of the original concentration","[1]; […] phenol + […] m-cresol, pH 7.2, NaCl 140 mM",33.1%
same,"Solubility of regular Insulin, % remaining of the original concentration","[1]; […] phenol + […] m-cresol, pH 7.4, NaCl 50 mM",96.7%
same,"Solubility of regular Insulin, % remaining of the original concentration","[1]; […] phenol + […] m-cresol, pH 7.4, NaCl 80 mM",97.3%
same,"Solubility of regular Insulin, % remaining of the original concentration","[1]; […] phenol + […] m-cresol, pH 7.4, NaCl 110 mM",94.2%
same,"Solubility of regular Insulin, % remaining of the original concentration","[1]; […] phenol + […] m-cresol, pH 7.4, NaCl 140 mM",57.9%
same,"Solubility of regular Insulin, % remaining of the original concentration","[1]; […] phenol + […] m-cresol, pH 7.6, NaCl 50 mM",97.2%
same,"Solubility of regular Insulin, % remaining of the original concentration","[1]; […] phenol + […] m-cresol, pH 7.6, NaCl 80 mM",97.1%
same,"Solubility of regular Insulin, % remaining of the original concentration","[1]; […] phenol + […] m-cresol, pH 7.6, NaCl 110 mM",97.1%
same,"Solubility of regular Insulin, % remaining of the original concentration","[1]; […] phenol + […] m-cresol, pH 7.6, NaCl 140 mM",91.7%
same,time tested without precipitates,"[2]; NaCl 80 mM or less, pH 7.6",greater than 15 months
same,time to form precipitates,"[2]; NaCl greater than 80 mM, pH 7.0",≤ 1 week
same,plasma half-life,[3]; following subcutaneous administration,about 1.5 hours
same,Onset,[3]; in vivo,30 min
same,Peak,[3]; in vivo,1 to 3 h
